We go through 5 molecules from patent US20210032351A1 (XDCEXPLORER SHANGHAI, published 2021).

The target of assay [1] is T1, human EGFRvIII-hFc protein (human, UniProt P00533 25-645).
T1 construct: extracellular domain; made in HEK293 cells, purified on protein A; also called immunogen A; hFc-tagged EGFRvIII protein; not shown: human IgG Fc fragment (hFc) of the pCpC vector
The experiment in a line: ELISA, coated EGFRvIII-hFc, antibody 0.0001 nM. The method, then: (§1) The purified immunogen A (EGFRvIII-hFc) obtained in example 1 (for the preparation method, see step (I) in example 1) is diluted with PBS to a final concentration of 1.0 μg/mL, and then added to a 96-well ELISA plate at 100 μl/well. The plate is sealed with a plastic film and incubated at 4° C. overnight. The next day, the plate is washed twice with a plate washing solution [PBS+0.01% (v/v) Tween20], and added with a blocking solution [PBS+0.01% (v/v) Tween20+1% (w/w) BSA] for blocking 2 hours at room temperature. The blocking solution is discarded, and the purified EGFRvIII antibody obtained in example 2 is added at 100 μl/well. The plate is incubated for 2 hours at 37° C., and then washed 3 times with the plate washing solution [PBS+0.01% (v/v) Tween20]. The plate is added with an HRP (horseradish peroxidase) labeled secondary antibody (purchased from Sigma), incubated at 37° C. for 2 hours, and then washed 3 times with the plate washing solution [PBS+0.01% (v/v) Tween20]. The plate is added with 100 μl of TMB substrate/well, incubated for 30 minutes at room temperature, and then added with 100 μl of stopping solution (1.0N HCl)/well. A450 nm value is read using an ELISA plate reader (SpectraMax 384plus, purchased from Molecular Device), and the results are shown in FIG. 6 and table 10.
(In general: An ELISA detects its analyte on a solid surface through an enzyme-linked reagent.)

The target in assay [2] is T1, human EGFRvIII-hFc protein. Description: ELISA, coated EGFRvIII-hFc, antibody 0.01 nM. Here is the method:
as §1

Assay [3] addresses T1, human EGFRvIII-hFc protein. Description: ELISA, coated EGFRvIII-hFc, antibody 0.1 nM. The method, then:
as §1

The target in assay [4] is T1, human EGFRvIII-hFc protein. The experiment in a line: ELISA, coated EGFRvIII-hFc, antibody 0.001 nM. Here is the method: as §1
Assay [5] concerns the target T2, human EGFR protein (wild-type), on cells (human, UniProt P00533 25-1210).
T2 construct: whole, on cells; transfected on CHO-K1 cells; endogenous on the human cell lines; the cell is named under assay; also called wild-type EGFR; hEGFR
The experiment in a line: FACS on U87MG and HEB cells. The method, then: The collected cells are suspended to 2×10⁶ cells/mL with an FACS buffer (HBSS+1% BSA, with the percentage being the mass percentage), added to a 96-well FACS reaction plate at 100 μL/well, then added with 100 μL/well of the purified EGFRvIII antibody (samples to be tested) obtained in example 2, and incubated on ice for 2 hours. The plate is centrifugally washed twice with the FACS buffer, added with 100 μL/well of a fluorescence (Alexa 488) labeled secondary antibody (purchased from Invitrogen), and then incubated on ice for 1 hour. The plate is centrifugally washed 3 times with the FACS buffer, added with 100 μL/well of a fixing solution [4% (v/v) paraformaldehyde] for suspending the cells, and centrifugally washed twice with the FACS buffer after 10 minutes. The cells are suspended in 100 μL of the FACS buffer, and the results are detected and analyzed by FACS (FACS Calibur, purchased from BD). Data analysis is performed by using the software (CellQuest) to obtain the mean fluorescence intensity (MFI) of the cells. Data is further analyzed by using the software (GraphPad Prism5) to perform data fitting and calculate EC50. […] A431 cells (human epidermal cell cancer cell lines) have a large amount of wild-type EGFR protein expressed on the surface thereof. […] U87MG cells (human glioma cell lines) have a small amount of wild-type EGFR protein expressed on the surface thereof, while HEB cells (human glioma cell lines) have a high level of wild-type EGFR protein expression on the surface thereof.

The target in assay [6] is T1, human EGFRvIII-hFc protein. Description: ELISA, coated EGFRvIII-hFc, antibody 100 nM. The method, then:
as §1

Assay [7] addresses T1, human EGFRvIII-hFc protein. The experiment in a line: ELISA, coated EGFRvIII-hFc, antibody 10 nM. The method, then:
as §1

The target in assay [8] is T1, human EGFRvIII-hFc protein. Description: ELISA, coated EGFRvIII-hFc, antibody 1 nM. The method, then: as §1

B1: Murine anti-46C4 (antibody, V domains shown)
VH: EVHLQQSVAELVRPGASVKLSCTASGFNIKNTYMHWVKQRPEQGLEWIGRIDPANGNTKYAPKFQGKATITADTSSNTAYLQLSSLTSEDTAIYYCASDFDYWGQGTTLTVSS
VL: DVLMTQTPLSLPVSLGDQVSISCRSSQSIVNSNGNTHLEWYLQKPGQSPKVLIYKVSKRFSGVPDRFSGSGSGTDFTLKISRVEAEDLGVYYCFQGSHVPYTFGGGTKLEIK
notes: murine hybridoma antibody; also called 46C4A6
As for B1, the OD450 nm in assay [1] was determined as 0.08; in assay [2] it was 0.15; in assay [3] it was 0.72; in assay [4], 0.09; in assay [6], 3.83; in assay [7], 3.85. In addition, the OD450 nm in assay [8] worked out at 3.5. Moreover, the binding result in assay [5] is on record as “no binding”.

B2: Murine anti-53D8 (antibody, V domains shown)
VH: QVQLQQSGAELARPGASVKMSCKASGYTFTSYTMHWVKQRPGQGLEWIGYINPSSGYTKYNQIFKDKATLTADKSSSTAYMQLSSLTSEDSAVYYCTRGGGRGFAYWGQGTLVTVSA
VL: DILMTQSPSSMSVSLGDTVSITCHASQDINSNIGWLQQKPGKSFKGLIYHGTNLEDGVPSRFSGSGSGADYSLTISSLESEDFADYYCVQYAQFPFTFGSGTKLEIK
notes: murine hybridoma antibody; also called 53D8H4
B2: the OD450 nm came out at 0.09 in assay [1]; 0.16 in assay [2]; 0.64 in assay [3]; 0.1 in assay [4]; 3.72 in assay [6]; 3.69 in assay [7]. This molecule registered an OD450 nm in assay [8] of 3.2. Further, in assay [5], the binding result is listed as “no binding”.

B3: Murine anti-64B11 (antibody, V domains shown)
VH: EVQLQQSGAELVKPGASVKLSCTASGFNIKDYYMHWVKQRTEQGLEWIGRIDPEDGETKYAPKFQGKATITADTSSNTAYLQLSNLPSEDTAVYYCGCRTGGFAYWGQGTLVTVSA
VL: DILMTQSPSSMSVSLGDTVSITCHASQGINSNIGWLQQKPGKSFKALIYHGTNLEDGVPSRFSGSGSGADYSLTISSLESEDFADYYCVQYAQFPFTFGSGTELEIK
notes: murine hybridoma antibody; also called 64B11F2
With B3, the OD450 nm in assay [1] was 0.08; in assay [2], 0.09; in assay [3] it was 0.24; in assay [4] it was 0.08; in assay [6], 3.64; in assay [7], 3.63. In assay [8], the OD450 nm came out at 1.58. In addition, the binding result in assay [5] was “no binding”.

B4: Murine anti-56F10 (antibody, V domains shown)
VH: EVQLQQSGAELVKPGASVKLSCTASGFNIKDFYMHWVKQRTEQGLEWIGRIDPEDGETKYAPKFQGKATITADTSSNTAYLQLSSLTSEDTAVYYCGCRTGGFAYWGQGTLVTVSA
VL: QIVLTQSPAIMSASPGEKVTMTCSASSSVSYLYWYQQKPGSSPSLLIYDTSNLASGVPVRFSGSGSGTSYSLTISRMEAEDAATYYCQQWSRNPWTFGGGTKLEIK
notes: murine hybridoma antibody; also called 56F10G2
B4: the OD450 nm in assay [1] amounted to 0.09; in assay [2], 0.11; in assay [3], 0.18; in assay [4], 0.1; in assay [6], 3.61; in assay [7] it was 3.53. Also, the OD450 nm in assay [8] is 0.98. The binding result in assay [5] was “no binding”.

B5: Murine anti-59G3 (antibody, V domains shown)
VH: DVQLQESGPGLVKPSQSLSLTCSVTGYSITSGYYWHWIRQFPENKLEWMGYISYDGSNIYNPSLKNRISITRDTSKNQFFLKLNSVTTEDTATYYCAINSDYALDYWGQGTSVTVSS
VL: QIVLTQSPAIMSASPGEKVTMTCSASSSVSYMYWYQQKPGSSPRLLIYDTSNLASGVPVRFSGSGSGTSYSLTISRMEAEDAATYYCQQWSSYSLTFGAGTKLELK
notes: murine hybridoma antibody; also called 59G3F12
In the case of B5, the OD450 nm in assay [1] worked out at 0.08; in assay [2] it was 0.13; in assay [3], 0.49; in assay [4], 0.08; in assay [6] it was 3.71; in assay [7] it was 3.67. The OD450 nm in assay [8] is 2.68. The binding result in assay [5] is listed as “no binding”.
